Experimental data from IntAct's records for PubMed 9874765.

Molecular target: cir1_human CIR1 (UniProt Q86X95)
Sequence (Q86X95 whole entry): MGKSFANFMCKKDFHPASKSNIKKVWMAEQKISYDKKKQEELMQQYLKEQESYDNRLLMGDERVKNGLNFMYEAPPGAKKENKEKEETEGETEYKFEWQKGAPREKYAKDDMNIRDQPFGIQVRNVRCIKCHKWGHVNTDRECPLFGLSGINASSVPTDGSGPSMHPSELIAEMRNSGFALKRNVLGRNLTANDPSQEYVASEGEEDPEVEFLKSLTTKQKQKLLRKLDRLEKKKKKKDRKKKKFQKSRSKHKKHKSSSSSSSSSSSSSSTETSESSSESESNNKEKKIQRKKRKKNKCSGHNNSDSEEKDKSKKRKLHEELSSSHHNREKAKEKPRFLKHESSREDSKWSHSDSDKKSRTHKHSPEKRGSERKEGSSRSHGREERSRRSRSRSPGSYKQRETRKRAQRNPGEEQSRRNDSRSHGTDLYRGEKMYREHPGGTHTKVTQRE

Recombining binding protein suppressor of hairless (Homo sapiens), Q06330 E233A;E234A;F235A, sequence (Q06330 whole entry E233A/E234A/F235A): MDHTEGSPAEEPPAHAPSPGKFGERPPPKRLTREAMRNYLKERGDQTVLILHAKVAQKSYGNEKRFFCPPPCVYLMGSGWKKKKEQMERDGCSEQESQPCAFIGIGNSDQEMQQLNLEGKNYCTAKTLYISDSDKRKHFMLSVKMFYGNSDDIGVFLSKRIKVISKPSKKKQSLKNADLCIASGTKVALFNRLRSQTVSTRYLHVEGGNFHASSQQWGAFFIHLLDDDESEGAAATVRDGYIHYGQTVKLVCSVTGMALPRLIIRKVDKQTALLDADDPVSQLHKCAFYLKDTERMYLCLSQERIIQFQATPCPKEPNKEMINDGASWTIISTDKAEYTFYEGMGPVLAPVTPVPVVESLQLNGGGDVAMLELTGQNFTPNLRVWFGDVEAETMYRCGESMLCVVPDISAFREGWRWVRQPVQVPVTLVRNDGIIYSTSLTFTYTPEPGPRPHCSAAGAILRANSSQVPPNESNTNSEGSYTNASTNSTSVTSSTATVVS
Recombining binding protein suppressor of hairless (Homo sapiens), Q06330 K249A;L250A;V251A, sequence (Q06330 whole entry K249A/L250A/V251A): as the sequence (Q06330 whole entry E233A/E234A/F235A) above, with A233E, A234E, A235F, K249A, L250A, V251A counted along it

Row | effect of a mutation on the interaction | Substance
1 | disrupting interaction strength | Recombining binding protein suppressor of hairless (Homo sapiens), Q06330 E233A;E234A;F235A
2 | disrupting interaction strength | Recombining binding protein suppressor of hairless (Homo sapiens), Q06330 K249A;L250A;V251A
